Experimental data taken from patent publication US20250282885A1 (VST BIO, published 2025).

Columns and labels:
[1] = target: human Sdc2 on Human Umbilical Vein Endothelial Cells (HUVEC) (human, UniProt P34741 19-201); experiment: cell-based or functional assay
human Sdc2 [2] = target: T1, human Sdc2 (human, UniProt P34741 19-144, limits assumed); experiment: Kd (human Sdc2), summary table of the mAbs
T1 construct: Antigen of the Octet tandem binning, loaded on biosensors at 100 nM; also called huSdc2; hSdc2
T1 sequence (P34741 19-144 limits assumed): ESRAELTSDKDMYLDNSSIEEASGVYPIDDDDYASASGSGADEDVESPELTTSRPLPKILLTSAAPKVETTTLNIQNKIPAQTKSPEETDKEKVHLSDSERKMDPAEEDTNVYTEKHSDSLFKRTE

human Sdc2 [3] = target: T1, human Sdc2; experiment: Octet BLI, heading box over the sensorgram
human Sdc2 [4] = target: T1, human Sdc2; experiment: Octet tandem binning; saturating Ab f3 19838-6N03-A
human Sdc2 [5] = target: T1, human Sdc2; experiment: Octet tandem binning; saturating Ab m2 19838-8G17-A
human Sdc2 [6] = target: T1, human Sdc2; experiment: Octet tandem binning; saturating Ab f9 19838-6-E17-A
human Sdc2 [7] = target: T1, human Sdc2; experiment: Octet tandem binning; saturating Ab f12 19838-6-N03-A
human Sdc2 [8] = target: T1, human Sdc2; experiment: Octet tandem binning; saturating Ab m1 19838-20H19-AB
human Sdc2 [9] = target: T1, human Sdc2; experiment: Octet tandem binning; saturating Ab f10 19838-10-I12-A
human Sdc2 [10] = target: T1, human Sdc2; experiment: Octet tandem binning; saturating Ab f11 19838-20-H19-A
human Sdc2 [11] = target: T1, human Sdc2; experiment: Octet tandem binning; saturating Ab f4 19844-R3-P3-C11
human Sdc2 [12] = target: T1, human Sdc2; experiment: Octet tandem binning; saturating Ab f6 19844-R3-P3-E09
human Sdc2 [13] = target: T1, human Sdc2; experiment: Octet tandem binning; saturating Ab m7 19844-R3-P1-E07
human Sdc2 [14] = target: T1, human Sdc2; experiment: Octet tandem binning; saturating Ab f5 19844-R4M-P3-E06
human Sdc2 [15] = target: T1, human Sdc2; experiment: Octet tandem binning; saturating Ab f8 19844-R4M-P2-C02
human Sdc2 [16] = target: T1, human Sdc2; experiment: Octet tandem binning; saturating Ab m4 19844-R4M-P1-A10
human Sdc2 [17] = target: T1, human Sdc2; experiment: Octet tandem binning; Buffer in place of a saturating Ab
human Sdc2 [18] = target: T1, human Sdc2; experiment: Octet BLI, HIS1K sensor loaded with huSdc2, antibody as sample; Full R2 0.9943
human Sdc2 [19] = target: T1, human Sdc2; experiment: Octet tandem binning; saturating Ab m6 19838-20H19-AA (marked non-binding ligand)
human Sdc2 [20] = target: T1, human Sdc2; experiment: Octet tandem binning; saturating Ab m3 19844-R3-P1-C02 (row boxed, self-self >0.09)
human Sdc2 [21] = target: T1, human Sdc2; experiment: Octet tandem binning; saturating Ab m8 19844-R4M-P1-B01 (marked non-binding ligand)
human Sdc2 [22] = target: T1, human Sdc2; experiment: Octet tandem binning; saturating Ab m5 19844-R4M-P3-A12 (row boxed, self-self >0.09)
human Sdc2 [23] = target: T1, human Sdc2; experiment: Octet BLI, heading box over the sensorgram; remark: listed apart in the source
mouse Sdc2 [24] = target: T2, mouse Sdc2 (mouse, UniProt P43407 19-145, limits assumed); experiment: Octet BLI, heading box over the sensorgram
T2 construct: Immobilised on Maxisorp plates for panning and ELISA; also called mSdc2; moSdc2
T2 sequence (P43407 19-145 limits assumed): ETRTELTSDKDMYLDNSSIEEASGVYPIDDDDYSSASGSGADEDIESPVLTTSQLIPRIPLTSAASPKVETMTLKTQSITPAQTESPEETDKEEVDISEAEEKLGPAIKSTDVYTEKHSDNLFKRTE

human Sdc2 [25] = target: T1, human Sdc2; experiment: Octet tandem binning; saturating Ab f7 19844-R3-P3-A12
human Sdc2 [26] = target: T1, human Sdc2; experiment: Octet BLI, HIS1K sensor loaded with huSdc2, antibody as sample; Full R2 0.9663
mouse Sdc2 [27] = target: T2, mouse Sdc2; experiment: Octet BLI, HIS1K sensor loaded with moSdc2, antibody as sample; Full R2 0.8674
pig Sdc2 [28] = target: T3, pig Sdc2 (pig, UniProt F1S0L5 19-145); experiment: Octet BLI, HIS1K sensor loaded with pigSdc2, antibody as sample; Full R2 0.9708
T3 construct: also called pSdc2

pig Sdc2 [29] = target: T3, pig Sdc2; experiment: Octet BLI, heading box over the sensorgram; the box prints nm, the table gives 4.74E-09 M
mouse Sdc2 [30] = target: T2, mouse Sdc2; experiment: Octet BLI, HIS1K sensor loaded with moSdc2, antibody as sample (curves 111.1, 37, 12.3, 4.1, 1.4, unit inferred); Full R2 0.8674
human Sdc2 [31] = target: T1, human Sdc2; experiment: Octet BLI, heading box over the sensorgram; remark: listed apart in the source
mouse Sdc2 [32] = target: T2, mouse Sdc2; experiment: Octet BLI, heading box over the sensorgram; remark: listed apart in the source
human Sdc2 [33] = target: T1, human Sdc2; experiment: Octet BLI, HIS1K sensor loaded with huSdc2, antibody as sample; Full R2 0.9628
Procedure: (§1) In order to characterize the binding affinity and in vivo/in vitro functional ability of the twelve clones generated by the previous studies and disclosed in Table 1, a series of assays were performed on each clone. These assays measured the affinity of each antibody clone for human, pig, and mouse Sdc2 using an Octet® binding assay system. Additionally, the functional ability of each clone to inhibit VEGFA-driven permeability (see Santiago, et al. (2021) J Am Heart Assoc. 10(18):e020521) was assessed in two therapeutic settings: a “prevention” study in which three concentrations of antibody (5 μg/ml, 10 μg/ml, 15 μg/ml, 20 μg/ml, and/or 40 μg/ml depending on the study) were pre-incubated for an hour before administration of 100 ng/ml of VEGFA, and a “treatment” study in which 3 hours of pre-treatment with 100 ng/ml VEGFA were followed by treatment with antibody at 20 μg/ml or 40 μg/ml. Results are shown for 8-G17 in FIG. 8 and FIG. 9, 20-H19-AB in FIG. 10 and FIG. 11 (FIG. 12 for monkey ECs), R3-P3-C11 in FIG. 13 and FIG. 14, R4M-P3-E06 in FIG. 15 and FIG. 16, R3-P3-E09 in FIG. 17 and FIG. 18, R3-P1-C02 in FIG. 19 and FIG. 20, R3-P3-A12 in FIG. 21 and FIG. 22, R4M-P3-A12 in FIG. 23 and FIG. 24, and R4M-P1-A10 in FIG. 25 and FIG. 26.

pig Sdc2 [34] = target: T3, pig Sdc2; experiment: Octet BLI, HIS1K sensor loaded with pigSdc2, antibody as sample; Full R2 0.9632
Procedure: as §1

pig Sdc2 [35] = target: T3, pig Sdc2; experiment: Octet BLI, heading box over the sensorgram; the box prints nm, the table gives 2.71E-09 M

Chain of human Sdc2 on Human Umbilical Vein Endothelial Cells (HUVEC) (P34741 19-201 limits assumed): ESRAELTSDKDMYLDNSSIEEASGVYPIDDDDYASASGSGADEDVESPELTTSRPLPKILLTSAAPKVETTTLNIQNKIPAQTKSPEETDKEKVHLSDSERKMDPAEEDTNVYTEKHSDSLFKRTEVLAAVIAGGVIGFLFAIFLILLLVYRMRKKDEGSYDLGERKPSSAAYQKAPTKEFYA

Row | Binder | % Inhibition of VEGFA-induced permeability at 24hrs (20ug/ml) [1] [%] | Kd (human Sdc2 [2]) [nM] | raw competing-Ab binding signal (human Sdc2 [4]) | raw competing-Ab binding signal (human Sdc2 [5]) | raw competing-Ab binding signal (human Sdc2 [6]) | raw competing-Ab binding signal (human Sdc2 [7]) | raw competing-Ab binding signal (human Sdc2 [8]) | raw competing-Ab binding signal (human Sdc2 [9]) | raw competing-Ab binding signal (human Sdc2 [10]) | raw competing-Ab binding signal (human Sdc2 [11]) | raw competing-Ab binding signal (human Sdc2 [12]) | raw competing-Ab binding signal (human Sdc2 [13]) | raw competing-Ab binding signal (human Sdc2 [14]) | raw competing-Ab binding signal (human Sdc2 [15]) | raw competing-Ab binding signal (human Sdc2 [16]) | raw competing-Ab binding signal (human Sdc2 [17]) | raw competing-Ab binding signal (human Sdc2 [19]) | raw competing-Ab binding signal (human Sdc2 [20]) | raw competing-Ab binding signal (human Sdc2 [21]) | raw competing-Ab binding signal (human Sdc2 [22]) | further results
1 | R3-P3-A12 (antibody, human IgG1, kappa, V domains shown, human IgG1 kappa from the phage campaign) VH: EVQLVESGGGLVQPGRSLRLSCGVSGFTFSSFGMHWVRQAPGKGLEWVAVISNDALHKNYGDSVKGRFTVTRDNSRNTLFLQMTSLRPEDTAVYYCAKDVVRGHTSGSLGSWGQGTLVTVSS VL: not shown | 90 | 2.8 | 0.704 | 0.548 | 0.594 | 0.794 | 0.459 | 0.3 | 0.529 | 0.0654 | 0.322 | 0.618 | 0.618 | 0.562 | 0.539 | 0.599 | 0.636 | 0.562 | 0.619 | 0.61 | Kd (human Sdc2 [3]): ~2.8 nM; Kd (human Sdc2 [18]): 2.8 nM; koff (human Sdc2 [18]): 0.00131 s⁻¹; kon (human Sdc2 [18]): 469000 M⁻¹ s⁻¹
2 | R3-P1-C02 (antibody, human IgG1, kappa, V domains shown) VH: EVQLVESGGGVVQPGGSLRISCVASEFPFSDFGMHWVRQAPGKGLEWVAFVRSHGSGKYYADSVKGRFTISGDKSKSTLYLQMESLRPDDAAVYYCTTLADVWGQGTTVTVSS VL: not shown | 100 | 2.81 | 0.221 | 0.207 | 0.227 | 0.233 | 0.27 | 0.235 | 0.286 | 0.0466 | 0.0516 | 0.24 | -0.0088 | 0.0877 | 0.126 | 0.223 | 0.254 |  | 0.204 | 0.231 | Kd (human Sdc2 [23]): ~2.81 nM; Kd (mouse Sdc2 [24]): ~2.44 nM; raw competing-Ab binding signal (human Sdc2 [25]): 0.103; Kd (human Sdc2 [26]): 2.81 nM; koff (human Sdc2 [26]): 0.00946 s⁻¹; kon (human Sdc2 [26]): 3.36e+06 M⁻¹ s⁻¹; koff (mouse Sdc2 [27]): 0.114 s⁻¹; Kd (pig Sdc2 [28]): 4.74 nM; koff (pig Sdc2 [28]): 0.0103 s⁻¹; kon (pig Sdc2 [28]): 2.16e+06 M⁻¹ s⁻¹; Kd (pig Sdc2 [29]): ~4.74 nM; Kd (mouse Sdc2 [30]): 2.44 nM
3 | R4M-P1-A10 (antibody, human IgG1, kappa, V domains shown) VH: EVQLVETGGGVVQPGRSLRLSCAASGFTFSSYAMHWVRQAPGKGLEWVAVISYDGSNKYYADSVKGRFTISRDNSKNTLYLQMNSLRAEDTAVYYCARDRGWADAFDIWGQGTMVTVSS VL: QAGLTQPPSVSKGLRQTATLTCTGNSNNVGYQGAVWLLQYQGHPPKVLSNRNNDRPSGISERLSASRSGNTASLTITGLQPEDEGDYFCAAWDGSLRGWVFGGGTKLTVLR | 100 | 1.82 | 0.362 | 0.377 | 0.34 | 0.406 | 0.439 | 0.418 | 0.444 | 0.193 | 0.203 | 0.353 | 0.358 | 0.211 |  | 0.337 | 0.32 | 0.255 | 0.355 | 0.302 | Kd (human Sdc2 [31]): ~1.82 nM; Kd (mouse Sdc2 [32]): ~1.85 nM; raw competing-Ab binding signal (human Sdc2 [25]): 0.246; Kd (human Sdc2 [33]): 1.82 nM; koff (human Sdc2 [33]): 0.00663 s⁻¹; kon (human Sdc2 [33]): 3.65e+06 M⁻¹ s⁻¹; Kd (pig Sdc2 [34]): 2.71 nM; koff (pig Sdc2 [34]): 0.00459 s⁻¹; kon (pig Sdc2 [34]): 1.69e+06 M⁻¹ s⁻¹; Kd (pig Sdc2 [35]): ~2.71 nM
